Like-named read-outs stand apart in the source and are kept apart here. Starred links: 1 amine or outer side, 2 acyl side, 3 side chain; linkers in the order of their positions; H or OH if unused. Positions of bridges follow the written chain, without caps; N, C: chain ends. Non-standard residues stand in square brackets, D forms with d. Residues, ends and D or L forms follow the SMILES beside them. *: point of attachment. X1 = CN(CCCN1CCN(*)CC1)c1ccc2nccc(C(=O)NCC(=O)N3CC(F)(F)C[C@H]3C#N)c2c1; DOTA = O=C(O)CN1CCN(CC(=O)O)CCN(CC(=O)*)CCN(CC(=O)O)CC1; dPhe(4-NHCONH2) = NC(=O)Nc1ccc(C[C@@H](N)C(=O)O)cc1; Phe(4-Cl) = N[C@@H](Cc1ccc(Cl)cc1)C(=O)O; Suc = O=C(CCC(=O)[*:2])[*:1]; AEEEA = NCCOCCOCCOCC(=O)O
Columns and labels:
[1] = system: nasopharyngeal carcinoma lesions; conditions: human, in vivo
human FAP = target: T1, human FAP (Homo sapiens, UniProt Q12884); experiment: FAP radioligand binding assay on HT-1080-FAP cells; conditions: read-out: half-maximal inhibitory concentration, FAP binding
T1 construct: expressed in transfected cells
T1 sequence (Q12884 1-760): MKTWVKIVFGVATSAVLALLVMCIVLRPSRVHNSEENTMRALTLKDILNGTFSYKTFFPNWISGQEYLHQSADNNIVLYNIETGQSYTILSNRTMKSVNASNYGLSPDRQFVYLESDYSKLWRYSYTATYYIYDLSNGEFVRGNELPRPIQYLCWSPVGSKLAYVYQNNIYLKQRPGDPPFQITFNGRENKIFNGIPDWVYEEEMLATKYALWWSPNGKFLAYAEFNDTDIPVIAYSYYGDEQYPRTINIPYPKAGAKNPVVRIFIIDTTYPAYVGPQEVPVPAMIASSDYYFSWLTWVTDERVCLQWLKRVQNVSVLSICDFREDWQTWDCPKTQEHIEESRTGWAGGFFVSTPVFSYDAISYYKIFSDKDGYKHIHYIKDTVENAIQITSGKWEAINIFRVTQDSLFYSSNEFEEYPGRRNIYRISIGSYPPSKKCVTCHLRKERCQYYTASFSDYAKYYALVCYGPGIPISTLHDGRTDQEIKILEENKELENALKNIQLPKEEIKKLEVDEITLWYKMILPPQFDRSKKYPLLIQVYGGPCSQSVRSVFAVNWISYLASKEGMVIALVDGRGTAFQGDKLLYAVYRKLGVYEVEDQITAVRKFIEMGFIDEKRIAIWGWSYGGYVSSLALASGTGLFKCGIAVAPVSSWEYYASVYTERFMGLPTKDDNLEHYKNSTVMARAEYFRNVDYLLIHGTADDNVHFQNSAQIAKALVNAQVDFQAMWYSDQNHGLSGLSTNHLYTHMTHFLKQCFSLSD
Method: (§1) Information on cell resources, transfection, and culture is provided in the supplemental materials. For in vitro studies, the cells were seeded in 24-well plates and cultured in a routine medium until they reached approximately 80% confluence. During the experiment, the medium was replaced with a fetal bovine serum–free medium. […] After a 60-min incubation period, the free tracer was removed using phosphate-buffered saline before measurement. The cells were lysed with 0.5 mL of 1 M NaOH, and radioactivity was subsequently gauged using a γ-counter (Wizard 2480; PerkinElmer Inc.).

SSTR2 [2] = target: T2, SSTR2 (Homo sapiens, UniProt P30874); experiment: SSTR2 receptor binding assay on HT-1080-SSTR2 cells; conditions: read-out: half-maximal inhibitory concentration, SSTR2 binding
T2 construct: expressed in transfected cells
Method: as §1

[3] = system: HT-1080-FAP–plus–HT-1080-SSTR2 xenografts; conditions: mouse
Method: (§2) Tumor-bearing mice (3/group) were intravenously injected with approximately 7.4 MBq of ^68Ga-FAPI-LM3, ^68Ga-FAPI-46, or ^68Ga-DOTA-LM3. Subsequent static PET scans were obtained at intervals of 0.5, 1, 2, and 4 h after injection using an Inveon small-animal PET scanner (Siemens). In the blocking experiment, approximately 60 nmol of the unlabeled precursor (FAPI-46, DOTA-LM3, or FAPI-46 plus DOTA-LM3) were simultaneously injected with ^68Ga-FAPI-LM3. The PET images were reconstructed iteratively using 3-dimensional OpMAP 256 (PET reconstruction protocol [.pPetRcn]; Siemens Healthineers AG) and converted to percentage injected dose per gram of tissue (%ID/g) by delineating the regions of interest. For the biodistribution studies, approximately 1.48 MBq of ^68Ga-FAPI-LM3, ^68Ga-FAPI-46, ^68Ga-DOTA-LM3, or ^68Ga-FAPI-LM3 with unlabeled precursor were injected into tumor-bearing mice (3/group), and different groups of mice were euthanized at the scheduled time points after injection.

[4] = system: HT-1080-FAP, HT-1080-SSTR2, HT-1080-FAP–plus–HT-1080-SSTR2, C666-1, U87MG cells; experiment: Cellular uptake test and blocking experiments; assay type: cell-based, human; conditions: 60 min, with 10 nmol unlabeled FAPI-46, DOTA-LM3 or both; all P < 0.05
Method: as §1

in vivo [5] = conditions: BALB/c nude, mouse, 1.48 MBq, total radioactivity
Method: as §2

[6] = system: HT-1080-FAP–plus–HT-1080-SSTR2 tumor xenograft; experiment: Small-animal PET imaging; conditions: 1 h after injection
Method: as §2

[7] = human, in vivo
in vivo [8] = conditions: BALB/c nude, mouse, iv, 7.4 MBq, total radioactivity, tumor uptake (PET)
Method: as §2

in vitro = in vitro ADME, bovine; conditions: serum
Method: Information regarding the reagents, chemicals, high-performance liquid chromatography, liquid chromatography–mass spectrometry, and flow diagram of the synthesis of FAPI-LM3 are provided in the supplemental materials (available at http://jnm.snmjournals.org ([16])). The radiolabeling of FAPI-46, DOTA-LM3, and FAPI-LM3 precursors with ^68Ga was performed following similar procedures. In brief, 25 nmol of the precursor in 1 mL of sodium acetate buffer (0.25 M, pH 8.2–8.3) was allowed to react with 4 mL of ^68Ga solution (1.3 GBq in 0.6 M HCl) at 100°C for 15 min. For clinical imaging, the final product was passed through a 0.22-μm Millipore filter for sterilization in each ^68Ga-FAPI-LM3 preparation process. The stability of ^68Ga-FAPI-LM3 was determined by incubating the product in phosphate-buffered saline and fetal bovine serum at 37°C and analyzing it via radio–high-performance liquid chromatography after 1 and 2 h of incubation.

clinical = conditions: human, in vivo, total radioactivity; for SUV: Median SUVmax; for SUV at 1 h: SUVmax
SSTR2 [9] = conditions: cited from earlier work
Excerpt: Within the domain of nuclear medicine, several targets, such as somatostatin receptor 2 (SSTR2), prostate-specific membrane antigen, and FAP, have emerged as prominent subjects of research ([7],[8]). Epstein–Barr virus latent membrane protein 1 can upregulate SSTR2 expression via the NF-κB pathway ([9]). Both FAP and SSTR2 are important markers in the biology of NPC, as evidenced by the plethora of such PET radiopharmaceuticals, including ^68Ga-FAPI for imaging cancer-associated fibroblasts and ^68Ga-DOTATATE for imaging SSTR2 ([10],[11]).

T2 sequence (P30874 whole entry): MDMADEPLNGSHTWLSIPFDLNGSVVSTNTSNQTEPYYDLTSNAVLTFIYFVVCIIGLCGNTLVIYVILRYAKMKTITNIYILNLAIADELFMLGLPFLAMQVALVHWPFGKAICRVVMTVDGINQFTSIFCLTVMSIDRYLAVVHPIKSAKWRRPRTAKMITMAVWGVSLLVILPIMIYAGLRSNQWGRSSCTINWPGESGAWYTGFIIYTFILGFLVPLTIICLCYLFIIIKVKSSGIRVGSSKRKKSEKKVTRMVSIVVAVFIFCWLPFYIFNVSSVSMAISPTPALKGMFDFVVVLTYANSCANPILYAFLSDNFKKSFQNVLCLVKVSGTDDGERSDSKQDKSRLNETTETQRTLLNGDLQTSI

Compound: OC[C@H]1OC(O)[C@H]([18F])[C@@H](O)[C@@H]1O (stereo partly shown) [^18F-FDG]
- Median SUVmax, Distant LN mets [1]: 8.2 (2.0–9.0)
- Median SUVmax, Peritoneal mets [1]: 3.4 (1.5–8.6)
- Median SUVmax, Pleural mets [1]: 7.2 (3.7–12.0)

Compound: CN(CCCN1CCN(C(=O)CN2CCN(CC(=O)O)CCN(CC(=O)O)CCN(CC(=O)O)CC2)CC1)c1ccc2nccc(C(=O)NCC(=O)N3CC(F)(F)C[C@H]3C#N)c2c1 [FAPI-46, reference compound]
- IC50 (human FAP; HT-1080-FAP cells, radioligand 68Ga-FAPI-46, 60 min incubation, 8.16 × 10^−5 to 10^−13 M, n = 3): 4.39 nM

Compound: C[C@@H](O)[C@@H]1NC(=O)[C@H](CCCCN)NC(=O)[C@@H](Cc2ccc(NC(N)=O)cc2)NC(=O)[C@H](Cc2ccc(O)cc2)NC(=O)[C@H](NC(=O)[C@H](Cc2ccc(Cl)cc2)NC(=O)CN2CCN(CC(=O)O)CCN(CC(=O)O)CCN(CC(=O)O)CC2)CSSC[C@@H](C(=O)N[C@H](Cc2ccc(O)cc2)C(N)=O)NC1=O [DOTA-LM3, reference compound] ({DOTA}-[Phe(4-Cl)][dC]Y[dPhe(4-NHCONH2)]KTC[dY]-NH2; disulfide 2-7)
- IC50 (SSTR2 [2]): 1.3 nM

Compound: C[C@@H](O)[C@@H]1NC(=O)[C@H](CCCCN)NC(=O)[C@@H](Cc2ccc(NC(N)=O)cc2)NC(=O)[C@H](Cc2ccc(O)cc2)NC(=O)[C@H](NC(=O)[C@H](Cc2ccc(Cl)cc2)NC(=O)[C@H](CCCCNC(=O)CN2CCN(CC(=O)O)CCN(CC(=O)O)CCN(CC(=O)O)CC2)NC(=O)CCC(=O)NCCOCCOCCOCC(=O)N2CCN(CCCN(C)c3ccc4nccc(C(=O)NCC(=O)N5CC(F)(F)C[C@H]5C#N)c4c3)CC2)CSSC[C@@H](C(=O)N[C@H](Cc2ccc(O)cc2)C(N)=O)NC1=O [^68Ga-FAPI-LM3, metal not drawn] ({X1-AEEEA-Suc}-K(DOTA)[Phe(4-Cl)][dC]Y[dPhe(4-NHCONH2)]KTC[dY]-NH2; disulfide 3-8)
- uptake in blood (ex vivo biodistribution) [3]: high
- binding to FAP or SSTR2 with corresponding unlabeled agent [4]: significantly blocked
- physiologic uptake in normal organs [1]: intense physiologic uptake
- tissue uptake at 1 h (in vivo [5]): 14.8 ± 0.76 %ID/g
- tissue uptake at 4 h (in vivo [5]): 17.7 ± 2.46 %ID/g
- blockade of tumor uptake ([6]; unlabeled DOTA-LM3): 62%
- blockade of tumor uptake ([6]; unlabeled FAPI-46): 63%
- blockade of tumor uptake ([6]; unlabeled FAPI-46 plus DOTA-LM3): 93%
- Effective dose equivalent, Mean [7]: 1.20E–03 mSv/MBq
- dosimetry, Adrenal glands, Mean [7]: 5.98E–05 mSv/MBq
- dosimetry, Brain, Mean [7]: 1.63E–06 mSv/MBq
- dosimetry, Breasts, Mean [7]: 3.47E–05 mSv/MBq
- dosimetry, Kidneys, Mean [7]: 1.08E–04 mSv/MBq
- dosimetry, LLI wall (lower large intestine), Mean [7]: 4.34E–04 mSv/MBq
- dosimetry, Liver, Mean [7]: 1.28E–03 mSv/MBq
- dosimetry, Lungs, Mean [7]: 7.68E–04 mSv/MBq
- dosimetry, Muscle, Mean [7]: 1.57E–05 mSv/MBq
- dosimetry, Osteogenic cells, Mean [7]: 4.22E–05 mSv/MBq
- dosimetry, Ovaries, Mean [7]: 3.66E–04 mSv/MBq
- dosimetry, Pancreas, Mean [7]: 1.23E–04 mSv/MBq
- dosimetry, Red marrow, Mean [7]: 7.62E–04 mSv/MBq
- dosimetry, Skin, Mean [7]: 6.29E–06 mSv/MBq
- dosimetry, Small intestine, Mean [7]: 2.71E–05 mSv/MBq
- dosimetry, Spleen, Mean [7]: 1.23E–04 mSv/MBq
- dosimetry, Stomach wall, Mean [7]: 4.04E–04 mSv/MBq
- dosimetry, Thyroid, Mean [7]: 3.68E–06 mSv/MBq
- dosimetry, ULI wall (upper large intestine), Mean [7]: 1.53E–05 mSv/MBq
- dosimetry, Urinary bladder wall, Mean [7]: 2.14E–03 mSv/MBq
- dosimetry, Uterus, Mean [7]: 2.19E–04 mSv/MBq
- tissue uptake at 0.5 h (in vivo [8]): 14 ± 0.47 %ID/g
- tissue uptake at 1 h (in vivo [8]): 14.4 ± 0.67 %ID/g
- tissue uptake at 2 h (in vivo [8]): 14.4 ± 0.68 %ID/g
- tissue uptake at 4 h (in vivo [8]): 13.8 ± 0.68 %ID/g
- remaining at 2 h (in vitro): > 99%
- SUV (clinical; Bone mets): 11.2 SUV
- SUV (clinical; Distant LN mets): 16.9 SUV
- SUV (clinical; Liver mets): 16.5 SUV
- SUV (clinical; Peritoneal mets): 13.1 SUV
- SUV (clinical; Pleural mets): 17.3 SUV
- SUV (clinical; Primary): 13.8 SUV
- SUV (clinical; Regional LN mets): 11.4 SUV
- SUV (clinical; Total distant metastases): 14.6 SUV
- SUV at 1 h (clinical; bone metastases): 10.4 SUV
- SUV at 1 h (clinical; distant lymph node metastases): 14.5 SUV
- SUV at 1 h (clinical; liver metastases): 14.3 SUV
- SUV at 1 h (clinical; regional lymph node metastases): 10.1 SUV

Compound: p-Cl-Phe-cyclo(D-Cys-Tyr-D-4-amino-Phe(carbamoyl)-Lys-Thr-Cys)D-Tyr-NH2 (disulfide) [LM3, SSTR2 antagonist peptide]
- binding affinity to SSTR2 (SSTR2 [9]): high
- internalization rate (SSTR2 [9]): low

Compound: C[C@@H](O)[C@@H]1NC(=O)[C@H](CCCCN)NC(=O)[C@@H](Cc2ccc(NC(N)=O)cc2)NC(=O)[C@H](Cc2ccc(O)cc2)NC(=O)[C@H](NC(=O)[C@H](Cc2ccc(Cl)cc2)NC(=O)[C@H](CCCCNC(=O)CN2CCN(CC(=O)O)CCN(CC(=O)O)CCN(CC(=O)O)CC2)NC(=O)CCC(=O)NCCOCCOCCOCC(=O)N2CCN(CCCN(C)c3ccc4nccc(C(=O)NCC(=O)N5CC(F)(F)C[C@H]5C#N)c4c3)CC2)CSSC[C@@H](C(=O)N[C@H](Cc2ccc(O)cc2)C(N)=O)NC1=O [FAPI-LM3] ({X1-AEEEA-Suc}-K(DOTA)[Phe(4-Cl)][dC]Y[dPhe(4-NHCONH2)]KTC[dY]-NH2; disulfide 3-8)
- IC50 (human FAP): 11.7 nM
- IC50 (SSTR2 [2]): 13.2 nM
